Test results reported in publication PMC10253590, “The Product of the Fission Yeast fhl1 Gene Binds to the HomolE Box and Activates In Vitro Transcription of Ribosomal Protein Genes”.

T1: Fhl1 (Schizosaccharomyces pombe, UniProt O14270 1-743)
T1 sequence: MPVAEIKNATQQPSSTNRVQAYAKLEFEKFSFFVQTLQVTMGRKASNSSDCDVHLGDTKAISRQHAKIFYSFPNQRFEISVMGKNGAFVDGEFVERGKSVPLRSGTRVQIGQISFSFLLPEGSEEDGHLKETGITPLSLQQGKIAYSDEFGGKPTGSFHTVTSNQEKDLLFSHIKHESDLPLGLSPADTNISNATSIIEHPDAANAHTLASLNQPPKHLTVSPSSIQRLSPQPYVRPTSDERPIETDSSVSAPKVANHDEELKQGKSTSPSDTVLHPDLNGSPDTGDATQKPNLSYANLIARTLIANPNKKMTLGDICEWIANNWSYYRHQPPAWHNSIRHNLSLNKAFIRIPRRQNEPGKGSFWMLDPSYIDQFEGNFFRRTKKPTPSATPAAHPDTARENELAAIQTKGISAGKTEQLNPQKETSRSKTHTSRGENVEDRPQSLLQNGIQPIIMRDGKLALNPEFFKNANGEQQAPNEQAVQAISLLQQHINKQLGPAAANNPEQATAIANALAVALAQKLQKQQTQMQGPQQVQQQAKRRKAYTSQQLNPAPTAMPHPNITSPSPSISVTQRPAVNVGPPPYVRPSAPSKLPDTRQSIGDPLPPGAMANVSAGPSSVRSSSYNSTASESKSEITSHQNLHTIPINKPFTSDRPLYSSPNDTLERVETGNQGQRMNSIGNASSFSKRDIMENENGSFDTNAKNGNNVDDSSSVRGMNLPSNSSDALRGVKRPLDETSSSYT

B1: HE cold competitor (dsDNA)
DNA 1: TTCGTTGAGGGTAGGGTTGC
DNA 2: GCAACCCTACCCTCAACGAA
B2: HD (HomolD) cold competitor (dsDNA)
DNA 1: TGAAAACAGTCACATTTTAC
DNA 2: GTAAAATGTGACTGTTTTCA
B3: mHE cold competitor (dsDNA)
DNA 1: TTCGTTGAGTGTAGTGTTGC
DNA 2: GCAACACTACACTCAACGAA
B4: HomolE probe (two tandem HomolE boxes) (dsDNA)
DNA 1: TTCGTTGAGGGTAGGGTTGAGGGTAGGGTTATGC
DNA 2: GCATAACCCTACCCTCAACCCTACCCTCAACGAA

Columns and labels:
[1] = target: T1, Fhl1; assay: competition; EMSA; 12.5, 25, 50 ng cold competitor vs N1 probe; 20 mM HEPES pH 7.9, 50 mM KCl, 10 mM MgCl2, 0.1 mM EDTA, 5% glycerol, 5 mM DTT, 0.1 mM PMSF, 5 ug acetylated BSA, 50 ng poly(dG-dC), no PEG; 5 min 25 C then 15; conditions: protein: recombinant; tags: His tag (pET15b; Ni-NTA purified)
[2] = target: T1, Fhl1; assay: competition; EMSA; 50 ng cold competitor vs N1 probe; 20 mM HEPES pH 7.9, 50 mM KCl, 10 mM MgCl2, 0.1 mM EDTA, 5% glycerol, 5 mM DTT, 0.1 mM PMSF, 5 ug acetylated BSA, 50 ng poly(dG-dC), no PEG; 5 min 25 C then 15; conditions: protein: recombinant; tags: His tag (pET15b; Ni-NTA purified)
[3] = target: T1, Fhl1; assay: EMSA; 10 ng Fhl1; poly(dG-dC); 20 mM HEPES pH 7.9, 50 mM KCl, 10 mM MgCl2, 0.1 mM EDTA, 5% glycerol, 5 mM DTT, 0.1 mM PMSF, 5 ug acetylated BSA, 50 ng poly(dG-dC), no PEG; 5 min 25 C then 15; conditions: protein: recombinant; tags: His tag (pET15b; Ni-NTA purified); label: 32P 5' end

| Binder | binding result [2] | further results |
| --- | --- | --- |
| B1 |  | binding result [1]: binds |
| B2 | no binding |  |
| B3 | no binding |  |
| B4 |  | binding result [3]: binds |
